The test has as its target T1, IFNAR on 38C13 cells (murine, UniProt P33896 27-590; O35664 22-513).
T1 sequence (looked up) 1: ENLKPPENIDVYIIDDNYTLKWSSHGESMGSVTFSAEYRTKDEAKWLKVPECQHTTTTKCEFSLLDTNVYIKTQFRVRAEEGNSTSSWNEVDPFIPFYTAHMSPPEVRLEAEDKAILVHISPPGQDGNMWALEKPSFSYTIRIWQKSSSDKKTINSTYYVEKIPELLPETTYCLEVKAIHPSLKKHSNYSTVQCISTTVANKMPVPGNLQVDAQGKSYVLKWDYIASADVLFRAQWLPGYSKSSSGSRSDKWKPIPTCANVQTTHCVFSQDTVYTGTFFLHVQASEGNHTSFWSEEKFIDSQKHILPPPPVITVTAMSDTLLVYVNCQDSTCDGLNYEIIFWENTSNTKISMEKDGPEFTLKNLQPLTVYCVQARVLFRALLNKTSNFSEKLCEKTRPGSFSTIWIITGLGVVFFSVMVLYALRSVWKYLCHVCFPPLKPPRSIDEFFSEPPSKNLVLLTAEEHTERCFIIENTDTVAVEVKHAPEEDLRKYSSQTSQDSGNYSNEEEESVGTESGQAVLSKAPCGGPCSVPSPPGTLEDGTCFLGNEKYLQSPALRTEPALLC
T1 sequence (looked up) 2: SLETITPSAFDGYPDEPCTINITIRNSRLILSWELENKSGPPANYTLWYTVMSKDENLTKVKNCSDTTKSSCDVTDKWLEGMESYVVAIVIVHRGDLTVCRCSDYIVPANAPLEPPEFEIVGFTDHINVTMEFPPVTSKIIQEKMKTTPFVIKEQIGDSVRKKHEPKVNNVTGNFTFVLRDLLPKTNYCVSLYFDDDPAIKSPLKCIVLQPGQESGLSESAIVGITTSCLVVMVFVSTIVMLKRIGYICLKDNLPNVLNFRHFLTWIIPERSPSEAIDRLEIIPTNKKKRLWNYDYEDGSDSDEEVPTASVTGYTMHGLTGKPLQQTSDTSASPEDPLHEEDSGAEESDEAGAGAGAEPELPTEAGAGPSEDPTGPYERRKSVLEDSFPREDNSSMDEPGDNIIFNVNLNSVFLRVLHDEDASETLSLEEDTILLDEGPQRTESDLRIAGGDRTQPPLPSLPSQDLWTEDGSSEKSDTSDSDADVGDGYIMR
Nature of the test: cell-based or functional assay.

B1: anti-CD20/IgG3-mu-IFN-α (other)
heavy: QVQLQQPGAELVKPGASVKMSCKASGYTFTSYNMHWVKQTPGRGLEWIGAIYPGNGDTSYNQKFKGKATLTADKSSSTAYMQLSSLTSEDSAVYYCARSTYYGGDWYFNVWGAGTTVTVSAASTKGPSVFPLAPCSRSTSGGTAALGCLVKDYFPEPVTVSWNSGALTSGVHTFPAVLQSSGLYSLSSVVTVPSSSLGTQTYTCNVNHKPSNTKVDKRVELKTPLGDTTHTCPRCPEPKSCDTPPPCPRCPEPKSCDTPPPCPRCPEPKSCDTPPPCPRCPAPELLGGPSVFLFPPKPKDTLMISRTPEVTCVVVDVSHEDPEVQFKWYVDGVEVHNAKTKLREEQYNSTFRVVSVLTVLHQDWLNGKEYKCKVSNKALPAPIEKTISKAKGQPREPQVYTLPPSREEMTKNQVSLTCLVKGFYPSDIAVEWESNGQPENNYNTTPPMLDSDGSFFLYSKLTVDKSRWQQGNIFSCSVMHEALHNHYTQKSLSLSPGKSGGGGSCDLPQTHNLRNKRALTLLVQMRRLSPLSCLKDRKDFGFPQEKVDAQQIKKAQAIPVLSELTQQILNIFTSKDSSAAWNATLLDSFCNDLHQQLNDLQGCLMQQVGVQEFPLTQEDALLAVRKYFHRITVYLREKKHSPCAWEVVRAEVWRALSSSANVLGRLREEK
light: QIVLSQSPAILSASPGEKVTMTCRASSSVSYIHWFQQKPGSSPKPWIYATSNLASGVPVRFSGSGSGTSYSLTISRVEAEDAATYYCQQWTSNPPTFGGGTKLEIK
Regarding B1, the “IC50 (pM) 38C13-CD20, cell viability, MTS assay” value stood at 76.4 pM and the “IC50 (pM) 38C13-CD20-IFNR Knock Down, cell viability, MTS assay” value was 848 pM.

For the origin of these results see patent publication US20110104112A1 (University of California, published 2011).
